For one molecule, stoichiometry N results are on record in publication PMC8974011.

The assay concerns the target T1, endogenous STAT1 of HeLa cells (human (endogenous in HeLa)), P42224.
T1 chain: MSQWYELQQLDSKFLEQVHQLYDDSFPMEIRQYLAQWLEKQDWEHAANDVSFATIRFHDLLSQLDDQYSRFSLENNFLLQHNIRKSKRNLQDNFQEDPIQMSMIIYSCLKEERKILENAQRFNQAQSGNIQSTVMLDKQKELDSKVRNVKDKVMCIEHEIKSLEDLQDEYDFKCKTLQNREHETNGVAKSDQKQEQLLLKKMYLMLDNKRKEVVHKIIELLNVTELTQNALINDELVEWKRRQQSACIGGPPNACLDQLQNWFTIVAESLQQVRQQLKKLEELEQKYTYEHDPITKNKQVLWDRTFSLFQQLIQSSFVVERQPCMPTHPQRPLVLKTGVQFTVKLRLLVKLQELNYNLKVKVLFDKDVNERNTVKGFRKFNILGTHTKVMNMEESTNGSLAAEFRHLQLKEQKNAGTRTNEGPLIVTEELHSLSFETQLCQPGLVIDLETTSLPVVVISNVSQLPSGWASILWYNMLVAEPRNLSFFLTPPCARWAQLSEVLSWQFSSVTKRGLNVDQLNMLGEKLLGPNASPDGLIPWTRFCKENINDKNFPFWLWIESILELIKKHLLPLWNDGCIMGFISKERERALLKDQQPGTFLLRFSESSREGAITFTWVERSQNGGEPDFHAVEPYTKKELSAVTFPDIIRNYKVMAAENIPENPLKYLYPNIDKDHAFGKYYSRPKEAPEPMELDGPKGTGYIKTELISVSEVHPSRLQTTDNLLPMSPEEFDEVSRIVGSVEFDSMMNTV
The experiment in a line: native gel or EMSA; extracts of IFNγ-stimulated HeLa cells incubated with [33P]-labelled 2xGAS duplex DNA (two tandem GAS sites); super-shift with STAT1 antibody; competition with 750-fold molar excess of unlabelled M67 DNA; 4.8% acrylamide gel at 4 °C; only DNA-bound complexes are seen. Conditions: remark: other sources report otherwise.

B1: endogenous STAT1 of HeLa cells, P42224 1-750 (natural protein)
chain: MSQWYELQQLDSKFLEQVHQLYDDSFPMEIRQYLAQWLEKQDWEHAANDVSFATIRFHDLLSQLDDQYSRFSLENNFLLQHNIRKSKRNLQDNFQEDPIQMSMIIYSCLKEERKILENAQRFNQAQSGNIQSTVMLDKQKELDSKVRNVKDKVMCIEHEIKSLEDLQDEYDFKCKTLQNREHETNGVAKSDQKQEQLLLKKMYLMLDNKRKEVVHKIIELLNVTELTQNALINDELVEWKRRQQSACIGGPPNACLDQLQNWFTIVAESLQQVRQQLKKLEELEQKYTYEHDPITKNKQVLWDRTFSLFQQLIQSSFVVERQPCMPTHPQRPLVLKTGVQFTVKLRLLVKLQELNYNLKVKVLFDKDVNERNTVKGFRKFNILGTHTKVMNMEESTNGSLAAEFRHLQLKEQKNAGTRTNEGPLIVTEELHSLSFETQLCQPGLVIDLETTSLPVVVISNVSQLPSGWASILWYNMLVAEPRNLSFFLTPPCARWAQLSEVLSWQFSSVTKRGLNVDQLNMLGEKLLGPNASPDGLIPWTRFCKENINDKNFPFWLWIESILELIKKHLLPLWNDGCIMGFISKERERALLKDQQPGTFLLRFSESSREGAITFTWVERSQNGGEPDFHAVEPYTKKELSAVTFPDIIRNYKVMAAENIPENPLKYLYPNIDKDHAFGKYYSRPKEAPEPMELDGPKGTGYIKTELISVSEVHPSRLQTTDNLLPMSPEEFDEVSRIVGSVEFDSMMNTV
modifications: here or on the partner: phospho-tyrosine 701 (P-STAT1, IFNγ-stimulated cells); phospho-tyrosine 701 (P-STAT1, IFNγ-stimulated cells)
As to B1, the stoichiometry N came to 4.
